In IntAct's records for PubMed 31515488:
Blank lines part the entries; values can stand above or below the substance they belong to.

Columns and labels:
vac14_human VAC14 = vac14_human VAC14 (UniProt Q08AM6)
gnmt_human GNMT = gnmt_human GNMT (UniProt Q14749)
cryaa_human CRYAA = cryaa_human CRYAA (UniProt P02489)
edad_human EDARADD = edad_human EDARADD (UniProt Q8WWZ3)
mif_human MIF = mif_human MIF (UniProt P14174)
thap1_human THAP1 = thap1_human THAP1 (UniProt Q9NVV9)
mbip1_human MBIP = mbip1_human MBIP (UniProt Q9NS73)
mbip1_human MBIP, sequence (Q9NS73 whole entry): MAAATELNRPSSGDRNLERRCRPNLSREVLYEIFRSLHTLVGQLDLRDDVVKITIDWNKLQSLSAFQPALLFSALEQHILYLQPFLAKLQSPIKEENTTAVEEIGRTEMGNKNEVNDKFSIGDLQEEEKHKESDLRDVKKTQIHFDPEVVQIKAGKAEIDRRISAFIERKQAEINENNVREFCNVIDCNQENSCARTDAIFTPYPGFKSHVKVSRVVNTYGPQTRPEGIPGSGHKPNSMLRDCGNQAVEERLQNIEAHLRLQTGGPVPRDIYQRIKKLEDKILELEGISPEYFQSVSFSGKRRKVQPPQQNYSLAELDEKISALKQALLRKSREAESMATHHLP

prps2_human PRPS2 = prps2_human PRPS2 (UniProt P11908)
prps2_human PRPS2, sequence (P11908 whole entry): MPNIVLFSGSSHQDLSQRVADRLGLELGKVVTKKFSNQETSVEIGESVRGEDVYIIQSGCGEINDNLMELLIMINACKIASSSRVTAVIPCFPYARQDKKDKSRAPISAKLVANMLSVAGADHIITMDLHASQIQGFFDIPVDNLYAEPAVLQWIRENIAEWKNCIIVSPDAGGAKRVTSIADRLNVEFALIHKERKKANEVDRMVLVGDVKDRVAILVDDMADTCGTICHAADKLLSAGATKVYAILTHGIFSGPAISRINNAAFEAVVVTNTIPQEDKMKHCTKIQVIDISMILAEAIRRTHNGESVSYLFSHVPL

TSC22D1 = TSC22D1 (UniProt Q15714)
cdd_human CDA = cdd_human CDA (UniProt P32320)
mtnb_human APIP = mtnb_human APIP (UniProt Q96GX9)
actb_human ACTB = actb_human ACTB (UniProt P60709)
nud14_human NUDT14 = nud14_human NUDT14 (UniProt O95848)
ncoa5_human NCOA5 = ncoa5_human NCOA5 (UniProt Q9HCD5)
ndka_human NME1 = ndka_human NME1 (UniProt P15531)
CCDC102B = CCDC102B (UniProt Q68D86)
actg_human ACTG1 = actg_human ACTG1 (UniProt P63261)
lonf1_human LONRF1 = lonf1_human LONRF1 (UniProt Q17RB8)
cdr2_human CDR2 = cdr2_human CDR2 (UniProt Q01850)
cdr2_human CDR2, sequence (Q01850 whole entry): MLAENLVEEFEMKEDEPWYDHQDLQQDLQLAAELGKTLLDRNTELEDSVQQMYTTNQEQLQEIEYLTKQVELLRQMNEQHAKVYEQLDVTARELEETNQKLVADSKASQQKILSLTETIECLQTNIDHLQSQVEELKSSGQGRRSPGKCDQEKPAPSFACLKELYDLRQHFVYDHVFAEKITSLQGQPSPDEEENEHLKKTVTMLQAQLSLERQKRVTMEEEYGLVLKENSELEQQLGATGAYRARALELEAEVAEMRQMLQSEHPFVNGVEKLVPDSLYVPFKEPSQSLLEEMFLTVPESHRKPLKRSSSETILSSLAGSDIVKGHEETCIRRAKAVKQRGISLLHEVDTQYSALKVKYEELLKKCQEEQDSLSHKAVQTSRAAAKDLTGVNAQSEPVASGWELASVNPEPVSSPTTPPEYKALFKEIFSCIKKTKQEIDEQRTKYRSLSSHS

lztl1_human LZTFL1 = lztl1_human LZTFL1 (UniProt Q9NQ48)
pygm_human PYGM = pygm_human PYGM (UniProt P11217)
ca050_human C1orf50 = ca050_human C1orf50 (UniProt Q9BV19)
dhb14_human HSD17B14 = dhb14_human HSD17B14 (UniProt Q9BPX1)
dnja3_human DNAJA3 = dnja3_human DNAJA3 (UniProt Q96EY1)
frih_human FTH1 = frih_human FTH1 (UniProt P02794)
rpia_human RPIA = rpia_human RPIA (UniProt P49247)
tolip_human TOLLIP = tolip_human TOLLIP (UniProt Q9H0E2)
dctp1_human DCTPP1 = dctp1_human DCTPP1 (UniProt Q9H773)
pnma5_human PNMA5 = pnma5_human PNMA5 (UniProt Q96PV4)
ei2ba_human EIF2B1 = ei2ba_human EIF2B1 (UniProt Q14232)
ei2ba_human EIF2B1, sequence (Q14232 whole entry): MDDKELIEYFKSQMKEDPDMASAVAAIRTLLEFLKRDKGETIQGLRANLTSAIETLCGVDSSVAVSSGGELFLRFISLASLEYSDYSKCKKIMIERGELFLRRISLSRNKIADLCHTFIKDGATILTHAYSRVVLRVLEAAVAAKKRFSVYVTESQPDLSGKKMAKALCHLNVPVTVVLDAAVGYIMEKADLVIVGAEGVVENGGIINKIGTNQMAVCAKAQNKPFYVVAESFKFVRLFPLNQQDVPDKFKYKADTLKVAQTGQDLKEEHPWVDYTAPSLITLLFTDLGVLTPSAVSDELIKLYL

pnma1_human PNMA1 = pnma1_human PNMA1 (UniProt Q8ND90)
birc2_human BIRC2 = birc2_human BIRC2 (UniProt Q13490)
kctd1_human KCTD1 = kctd1_human KCTD1 (UniProt Q719H9)
gas7_human GAS7 = gas7_human GAS7 (UniProt O60861)
gas7_human GAS7, sequence (O60861 whole entry): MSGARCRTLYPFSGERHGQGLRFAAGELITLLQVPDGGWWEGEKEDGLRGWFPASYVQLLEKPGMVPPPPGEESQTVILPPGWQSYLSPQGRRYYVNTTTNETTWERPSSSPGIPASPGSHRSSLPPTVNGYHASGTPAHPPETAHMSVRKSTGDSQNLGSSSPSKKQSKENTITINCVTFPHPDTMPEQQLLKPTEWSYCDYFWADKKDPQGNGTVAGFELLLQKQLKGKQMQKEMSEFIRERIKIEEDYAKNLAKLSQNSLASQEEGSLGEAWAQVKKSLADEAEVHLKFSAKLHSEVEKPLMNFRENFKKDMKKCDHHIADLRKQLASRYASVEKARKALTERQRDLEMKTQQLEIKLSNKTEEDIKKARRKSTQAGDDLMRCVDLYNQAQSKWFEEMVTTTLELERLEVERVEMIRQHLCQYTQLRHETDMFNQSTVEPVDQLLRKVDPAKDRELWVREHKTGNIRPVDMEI

dtx2_human DTX2 = dtx2_human DTX2 (UniProt Q86UW9)
trim1_human MID2 = trim1_human MID2 (UniProt Q9UJV3)
trim1_human MID2, sequence (Q9UJV3 whole entry): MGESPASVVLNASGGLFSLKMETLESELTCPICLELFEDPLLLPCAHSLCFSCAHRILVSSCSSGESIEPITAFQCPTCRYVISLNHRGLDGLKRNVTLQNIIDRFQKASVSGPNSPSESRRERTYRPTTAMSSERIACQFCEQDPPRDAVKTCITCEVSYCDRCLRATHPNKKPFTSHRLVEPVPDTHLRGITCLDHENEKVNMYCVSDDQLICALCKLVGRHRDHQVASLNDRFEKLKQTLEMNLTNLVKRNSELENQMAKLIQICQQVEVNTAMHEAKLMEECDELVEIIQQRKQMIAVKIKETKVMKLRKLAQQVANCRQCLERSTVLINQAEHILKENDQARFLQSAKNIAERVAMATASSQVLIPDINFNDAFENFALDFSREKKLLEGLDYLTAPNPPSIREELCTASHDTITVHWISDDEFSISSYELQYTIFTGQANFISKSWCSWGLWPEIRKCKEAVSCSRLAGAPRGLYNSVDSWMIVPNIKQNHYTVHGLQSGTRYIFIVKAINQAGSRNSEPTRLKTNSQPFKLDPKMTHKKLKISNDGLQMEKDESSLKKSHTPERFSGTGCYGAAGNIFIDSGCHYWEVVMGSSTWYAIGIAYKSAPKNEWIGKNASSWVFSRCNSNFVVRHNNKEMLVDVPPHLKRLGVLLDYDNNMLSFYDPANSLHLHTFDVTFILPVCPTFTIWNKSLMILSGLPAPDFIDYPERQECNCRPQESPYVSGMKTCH

otub1_human OTUB1 = otub1_human OTUB1 (UniProt Q96FW1)
rn115_human RNF115 = rn115_human RNF115 (UniProt Q9Y4L5)
rnf14_human RNF14 = rnf14_human RNF14 (UniProt Q9UBS8)
sdcb1_human SDCBP = sdcb1_human SDCBP (UniProt O00560)
tri23_human TRIM23 = tri23_human TRIM23 (UniProt P36406)
prdc1_human PRTFDC1 = prdc1_human PRTFDC1 (UniProt Q9NRG1)
prdc1_human PRTFDC1, sequence (Q9NRG1 whole entry): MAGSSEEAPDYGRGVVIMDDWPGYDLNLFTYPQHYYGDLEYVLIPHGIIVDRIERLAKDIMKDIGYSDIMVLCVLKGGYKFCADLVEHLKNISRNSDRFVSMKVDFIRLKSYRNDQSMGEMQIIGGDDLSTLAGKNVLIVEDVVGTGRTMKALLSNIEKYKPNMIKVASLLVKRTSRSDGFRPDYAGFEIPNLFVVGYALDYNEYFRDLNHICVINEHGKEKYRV

gpix_human GP9 = gpix_human GP9 (UniProt P14770)
k1h1_human KRT31 = k1h1_human KRT31 (UniProt Q15323)
trip6_human TRIP6 = trip6_human TRIP6 (UniProt Q15654)
trip6_human TRIP6, sequence (Q15654 whole entry): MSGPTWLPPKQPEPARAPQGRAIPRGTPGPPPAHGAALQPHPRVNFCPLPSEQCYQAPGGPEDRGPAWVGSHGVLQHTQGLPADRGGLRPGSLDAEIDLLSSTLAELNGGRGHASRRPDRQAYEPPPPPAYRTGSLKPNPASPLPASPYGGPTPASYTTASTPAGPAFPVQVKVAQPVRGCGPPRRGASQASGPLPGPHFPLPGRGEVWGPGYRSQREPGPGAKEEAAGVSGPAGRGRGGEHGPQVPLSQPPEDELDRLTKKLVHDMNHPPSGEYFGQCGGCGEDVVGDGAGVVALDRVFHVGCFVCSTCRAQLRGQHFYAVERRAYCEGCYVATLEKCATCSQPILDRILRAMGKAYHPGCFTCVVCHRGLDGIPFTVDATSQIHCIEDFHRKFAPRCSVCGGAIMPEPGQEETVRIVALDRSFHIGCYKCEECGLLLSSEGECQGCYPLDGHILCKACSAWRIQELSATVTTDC

rgs20_human RGS20 = rgs20_human RGS20 (UniProt O76081)
grn_human GRN = grn_human GRN (UniProt P28799)

Homeobox protein Hox-A1 (Homo sapiens), P49639 S98R, sequence (P49639 whole entry S98R): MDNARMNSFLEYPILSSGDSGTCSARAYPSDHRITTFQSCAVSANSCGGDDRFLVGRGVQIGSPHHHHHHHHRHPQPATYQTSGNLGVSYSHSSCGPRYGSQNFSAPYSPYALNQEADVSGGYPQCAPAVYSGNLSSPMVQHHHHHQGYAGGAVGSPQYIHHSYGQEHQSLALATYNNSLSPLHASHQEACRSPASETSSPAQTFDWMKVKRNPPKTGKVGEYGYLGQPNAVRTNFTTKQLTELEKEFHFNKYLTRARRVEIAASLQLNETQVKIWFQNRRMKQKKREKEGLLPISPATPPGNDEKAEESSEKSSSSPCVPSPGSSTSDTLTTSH
FAD synthase (Homo sapiens), Q8NFF5 R228H, sequence (Q8NFF5 whole entry R228H): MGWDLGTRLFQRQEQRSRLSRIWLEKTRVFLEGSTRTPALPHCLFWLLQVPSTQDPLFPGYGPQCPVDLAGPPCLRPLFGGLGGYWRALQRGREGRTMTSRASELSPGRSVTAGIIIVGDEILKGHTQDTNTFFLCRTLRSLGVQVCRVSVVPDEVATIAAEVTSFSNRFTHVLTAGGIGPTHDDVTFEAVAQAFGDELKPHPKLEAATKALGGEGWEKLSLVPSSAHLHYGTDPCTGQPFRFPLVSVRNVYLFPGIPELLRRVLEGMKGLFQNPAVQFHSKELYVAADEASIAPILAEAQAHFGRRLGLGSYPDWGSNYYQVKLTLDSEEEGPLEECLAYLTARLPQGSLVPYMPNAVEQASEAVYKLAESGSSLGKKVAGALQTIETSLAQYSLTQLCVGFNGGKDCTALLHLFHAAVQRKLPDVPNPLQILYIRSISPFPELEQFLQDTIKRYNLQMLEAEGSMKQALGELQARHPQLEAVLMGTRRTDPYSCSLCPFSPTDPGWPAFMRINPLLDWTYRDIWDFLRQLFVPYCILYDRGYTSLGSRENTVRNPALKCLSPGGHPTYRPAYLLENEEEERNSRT
Ubiquitin-conjugating enzyme E2 D4 (Homo sapiens), Q9Y2X8 G27S, sequence (Q9Y2X8 whole entry G27S): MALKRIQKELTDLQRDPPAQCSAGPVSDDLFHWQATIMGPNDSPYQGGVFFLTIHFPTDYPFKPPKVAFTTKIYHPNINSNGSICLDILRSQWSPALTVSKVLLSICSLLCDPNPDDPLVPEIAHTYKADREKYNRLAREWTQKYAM
cryaa_human CRYAA, sequence (P02489 whole entry): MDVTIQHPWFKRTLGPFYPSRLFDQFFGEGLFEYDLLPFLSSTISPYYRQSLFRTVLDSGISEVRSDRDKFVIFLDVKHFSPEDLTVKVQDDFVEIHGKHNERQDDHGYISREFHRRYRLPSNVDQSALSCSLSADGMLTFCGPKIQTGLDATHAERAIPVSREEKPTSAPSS
gnmt_human GNMT, sequence (Q14749 whole entry): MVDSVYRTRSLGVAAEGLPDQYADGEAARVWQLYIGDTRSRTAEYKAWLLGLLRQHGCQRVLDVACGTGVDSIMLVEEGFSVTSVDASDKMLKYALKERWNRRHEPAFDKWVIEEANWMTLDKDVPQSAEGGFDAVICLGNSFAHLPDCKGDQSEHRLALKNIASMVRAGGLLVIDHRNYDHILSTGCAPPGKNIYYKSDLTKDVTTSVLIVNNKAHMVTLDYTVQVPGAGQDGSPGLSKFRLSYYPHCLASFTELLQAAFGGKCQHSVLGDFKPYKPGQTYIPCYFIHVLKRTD

effect of a mutation on the interaction (vac14_human VAC14): with no effect | effect of a mutation on the interaction (gnmt_human GNMT): with no effect | effect of a mutation on the interaction (cryaa_human CRYAA): with no effect | effect of a mutation on the interaction (edad_human EDARADD): with no effect | effect of a mutation on the interaction (mif_human MIF): with no effect | effect of a mutation on the interaction (thap1_human THAP1): with no effect | effect of a mutation on the interaction (mbip1_human MBIP): with no effect | effect of a mutation on the interaction (prps2_human PRPS2): with no effect | effect of a mutation on the interaction (TSC22D1): with no effect | effect of a mutation on the interaction (cdd_human CDA): with no effect | effect of a mutation on the interaction (mtnb_human APIP): with no effect | effect of a mutation on the interaction (actb_human ACTB): with no effect | effect of a mutation on the interaction (nud14_human NUDT14): with no effect | effect of a mutation on the interaction (ncoa5_human NCOA5): with no effect | effect of a mutation on the interaction (ndka_human NME1): with no effect | effect of a mutation on the interaction (CCDC102B): with no effect | effect of a mutation on the interaction (actg_human ACTG1): with no effect | effect of a mutation on the interaction (lonf1_human LONRF1): with no effect | effect of a mutation on the interaction (cdr2_human CDR2): with no effect | effect of a mutation on the interaction (lztl1_human LZTFL1): with no effect | effect of a mutation on the interaction (pygm_human PYGM): with no effect | effect of a mutation on the interaction (ca050_human C1orf50): with no effect | effect of a mutation on the interaction (dhb14_human HSD17B14): with no effect | effect of a mutation on the interaction (dnja3_human DNAJA3): with no effect | effect of a mutation on the interaction (frih_human FTH1): with no effect | effect of a mutation on the interaction (rpia_human RPIA): with no effect | effect of a mutation on the interaction (tolip_human TOLLIP): with no effect | effect of a mutation on the interaction (dctp1_human DCTPP1): with no effect | effect of a mutation on the interaction (pnma5_human PNMA5): with no effect | effect of a mutation on the interaction (ei2ba_human EIF2B1): with no effect | effect of a mutation on the interaction (pnma1_human PNMA1): with no effect | effect of a mutation on the interaction (birc2_human BIRC2): with no effect | effect of a mutation on the interaction (kctd1_human KCTD1): with no effect | effect of a mutation on the interaction (gas7_human GAS7): with no effect
Substance: Protein N-terminal glutamine amidohydrolase (Homo sapiens), Q96HA8 A52G

effect of a mutation on the interaction (dtx2_human DTX2): with no effect | effect of a mutation on the interaction (trim1_human MID2): with no effect | effect of a mutation on the interaction (otub1_human OTUB1): with no effect | effect of a mutation on the interaction (rn115_human RNF115): with no effect | effect of a mutation on the interaction (rnf14_human RNF14): with no effect
Substance: Ubiquitin-conjugating enzyme E2 D4 (Homo sapiens), Q9Y2X8 G27S

effect of a mutation on the interaction (sdcb1_human SDCBP): with no effect | effect of a mutation on the interaction (tri23_human TRIM23): with no effect | effect of a mutation on the interaction (prdc1_human PRTFDC1): with no effect
Substance: FAD synthase (Homo sapiens), Q8NFF5 R228H

effect of a mutation on the interaction (gpix_human GP9): with no effect | effect of a mutation on the interaction (k1h1_human KRT31): with no effect | effect of a mutation on the interaction (trip6_human TRIP6): with no effect | effect of a mutation on the interaction (rgs20_human RGS20): with no effect | effect of a mutation on the interaction (grn_human GRN): with no effect
Substance: Homeobox protein Hox-A1 (Homo sapiens), P49639 S98R
